Experimental data reported in patent US20160185837A1, “GIP AND GLP-1 RECEPTOR DUAL-AGONISTS FOR THE TREATMENT OF DIABETES” (Medimmune Limited, priority 2013, published 2016).

T1: human GIP receptor (human) (UniProt P48546)
T1 sequence (looked up): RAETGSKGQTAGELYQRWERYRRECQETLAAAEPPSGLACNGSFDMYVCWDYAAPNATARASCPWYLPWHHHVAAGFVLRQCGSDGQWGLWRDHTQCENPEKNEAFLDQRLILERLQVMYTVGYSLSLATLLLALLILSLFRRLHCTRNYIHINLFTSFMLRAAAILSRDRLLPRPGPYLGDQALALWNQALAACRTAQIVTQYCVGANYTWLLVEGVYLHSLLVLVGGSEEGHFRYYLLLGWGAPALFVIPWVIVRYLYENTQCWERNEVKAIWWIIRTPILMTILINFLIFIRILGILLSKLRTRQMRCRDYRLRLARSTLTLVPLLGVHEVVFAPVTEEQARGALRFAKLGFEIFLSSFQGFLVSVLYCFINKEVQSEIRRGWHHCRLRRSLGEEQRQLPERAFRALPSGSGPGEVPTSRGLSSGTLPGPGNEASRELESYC

T2: mouse GIP receptor (mouse) (UniProt Q0P543)
T2 sequence (looked up): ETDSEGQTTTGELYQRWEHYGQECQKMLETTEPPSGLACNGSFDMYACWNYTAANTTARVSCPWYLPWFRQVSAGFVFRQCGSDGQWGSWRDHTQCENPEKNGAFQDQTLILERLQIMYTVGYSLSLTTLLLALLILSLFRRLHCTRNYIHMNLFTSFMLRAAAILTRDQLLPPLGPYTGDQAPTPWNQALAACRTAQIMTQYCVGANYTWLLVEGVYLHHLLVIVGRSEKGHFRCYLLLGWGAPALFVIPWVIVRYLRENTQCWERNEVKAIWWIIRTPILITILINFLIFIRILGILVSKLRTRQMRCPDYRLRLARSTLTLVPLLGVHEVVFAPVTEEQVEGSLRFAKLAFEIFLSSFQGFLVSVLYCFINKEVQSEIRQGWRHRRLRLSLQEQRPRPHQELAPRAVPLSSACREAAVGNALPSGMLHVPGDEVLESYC


Experiments:
Test in all cases: cell-based or functional assay
[1] = biological target: T1, human GIP receptor (human)
[2] = biological target: human GLP-1 receptor (human) (UniProt P43220)
Chain of human GLP-1 receptor (human) (P43220 24-463): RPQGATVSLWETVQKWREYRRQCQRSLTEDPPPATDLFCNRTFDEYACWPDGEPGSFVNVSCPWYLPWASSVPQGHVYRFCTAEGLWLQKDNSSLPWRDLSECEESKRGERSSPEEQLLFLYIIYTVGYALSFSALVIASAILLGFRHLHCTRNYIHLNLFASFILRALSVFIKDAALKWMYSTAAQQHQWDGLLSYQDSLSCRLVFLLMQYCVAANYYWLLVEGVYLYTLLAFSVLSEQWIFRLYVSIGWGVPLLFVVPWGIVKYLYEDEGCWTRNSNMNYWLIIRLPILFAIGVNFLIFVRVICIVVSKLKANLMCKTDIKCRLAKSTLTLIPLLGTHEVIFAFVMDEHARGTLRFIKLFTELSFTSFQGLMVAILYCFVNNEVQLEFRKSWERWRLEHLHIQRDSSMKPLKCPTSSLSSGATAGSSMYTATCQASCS

[3] = biological target: human glucagon receptor (human) (UniProt P47871)
Chain of human glucagon receptor (human) (P47871 26-477): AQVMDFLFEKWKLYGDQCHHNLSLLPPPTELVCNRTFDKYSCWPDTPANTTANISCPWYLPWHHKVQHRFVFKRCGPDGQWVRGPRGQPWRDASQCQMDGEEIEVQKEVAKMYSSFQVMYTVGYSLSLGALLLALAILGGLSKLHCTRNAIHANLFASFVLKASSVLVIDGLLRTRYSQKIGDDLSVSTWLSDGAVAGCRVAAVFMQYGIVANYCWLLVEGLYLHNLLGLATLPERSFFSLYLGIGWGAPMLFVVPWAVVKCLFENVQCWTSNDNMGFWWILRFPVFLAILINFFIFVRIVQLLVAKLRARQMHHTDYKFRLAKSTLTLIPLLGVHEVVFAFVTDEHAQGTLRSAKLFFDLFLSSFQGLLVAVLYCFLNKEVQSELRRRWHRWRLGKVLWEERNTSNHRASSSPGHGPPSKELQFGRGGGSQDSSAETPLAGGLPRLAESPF

[4] = biological target: T2, mouse GIP receptor (mouse)

cAMP EC50 [1] [nM] | cAMP EC50 [2] [nM] | cAMP EC50, Batch 1 [2] [nM] | Binder | further results
 |  |  | IP132 (Fc fusion) HGEGTFTSDVSSYLEGQAAKEFIAWLVKGGGGGGSGGGGSGGGGSGGGGSATHTCPPCPAPEF | cAMP EC50, Batch 2 [1]: 81 nM; cAMP EC50, Batch 2 [2]: 0.04 nM
0.0078 | 4100 |  | IP207 (Fc fusion) YAEGTFISDYSIAMDKIHQQDFVNWLLAQKGKKNDWKHNITQAAAGGSGSTASSGSGSATGGGGAATHTCPPCPAPELL | cAMP EC50 [3]: 900 nM; cAMP EC50, Batch 1 [1]: 0.0085 nM
 | > 17.2 |  | IP404 (Fc fusion) YSEGTFTSLYRIHKERQAIDEFIAKLLKGGGSGGGGSGGGGSGGGGSGGGGSGGGGSGGGGSGGGGSACPPC | cAMP EC50 [3]: > 17.2 nM; cAMP EC50 [4]: 0.05 nM
 | > 166 |  | IP408 (Fc fusion) YSEGTHTSDLRILLERQAIDEFIAKLLKGGGSGGGGSGGGGSGGGGSGGGGSGGGGSGGGGSGGGGSACPPC | cAMP EC50 [3]: > 166 nM; cAMP EC50 [4]: 0.38 nM
 | > 59 |  | IP422 (Fc fusion) YSEGTHTSDLRILLERQAIDEFIAFLLKGGGSGGGGSGGGGSGGGGSGGGGSGGGGSGGGGSGGGGSACPPC | cAMP EC50 [3]: > 59 nM; cAMP EC50, hGIPr (C3) line [1]: 1.8 nM; cAMP EC50 [4]: 0.012 nM
2300 |  |  | GGGGGSGGGGSGGGGSGGGGSATHTCPPC (Fc fusion, not shown: a dimerising Fc or GST) [IP288] | 
 |  | 0.061 | IP195 (Fc fusion) HGEGTFTSDVSSYLEGQAAKEFIAWLVKGAAAGGSGSTASSGSGSATGGGGESKYGPPCPPCPAPEF | 
 |  | 0.058 | IP238 (Fc fusion) HGEGTFTSDVSSYLEGQAAKEFIAWLVKGGGGGGSGGGGSGGGGSAESKYGPPCPPC | cAMP EC50, Batch 1 [1]: 310 nM
 |  | 0.073 | IP196 (Fc fusion) HGEGTFTSDVSSYLEGQAAKEFIAWLVKGAAAGGSGSTASSGSGSATGGGGAPEF | 
 |  | 500 | IP188 (Fc fusion) YSEGTFISDYSIAMDKIHQQDFVNWLLAQKAPPGGGGGSGGGGSGGGGSGGGGSATHTCPPCPAPEF | cAMP EC50, Batch 1 [3]: 350 nM; cAMP EC50, Batch 1 [1]: 0.0038 nM
 |  | 0.067 | IP231 (Fc fusion) HGEGTFTSDVSSYLEEQAAKEFIAWLVKGGGGGGSGGGGSGGGGSGGGGSATHTCPPC | 
0.35 | 0.57 |  | IP224 (Fc fusion) YSEGTFTSDVSSYMERQAIDEFIAWLLGGGAAAGGSGSTASSGSGSATGGGGAATHTCPPCPAPEF | 
0.42 | 0.6 |  | IP176 (Fc fusion) YSEGTFTSDVSSYMERQAISEFIAWLLKGPAAAGGSGSTASSGSGSATGGGGAATHTCPPCPAPEF | 
16 | 0.033 |  | IP150 (Fc fusion) YSEGTFTSDVSSYLEGQAAKEFIAWLVAGGAPPGGSGSTASSGSGSATGGGGAATHTCPPCPAPEF | 
 |  | 0.042 | IP203 (Fc fusion) HGEGTFTSDVSSYLEGQAAKEFIAWLVKGGAAAGGSGSTASSGSGSATGGGGAATHTCPPCPAPEF | cAMP EC50, Batch 1 [3]: > 650 nM; cAMP EC50, Batch 1 [1]: 110 nM
 |  | 0.057 | IP191 (Fc fusion) HGEGTFTSDVSSYLEGQAAKEFIAWLVKGAAAGGSGSTASSGSGSATGGGGAATYTCPPCPAPEF | 

cAMP EC50 [1] [nM] | cAMP EC50 [2] [nM] | cAMP EC50, Batch 1 [2] [nM] | Binder | further results
 |  | 0.043 | IP192 (Fc fusion) HGEGTFTSDVSSYLEGQAAKEFIAWLVKGAAAGGSGSTASSGSGSATGGGGAATSTCPPCPAPEF | 
 |  | 0.049 | IP146 (Fc fusion) HGEGTFTSDVSSYLEGQAAKEFIAWLVKGAAAGGSGSTASSGSGSATGGGGAACPPCPAPEF | cAMP EC50, Batch 1 [3]: 650 nM; cAMP EC50, Batch 1 [1]: 83 nM
 |  | 0.061 | IP194 (Fc fusion) HGEGTFTSDVSSYLEGQAAKEFIAWLVKGAAAGGSGSTASSGSGSATGGGGPPCPPCPAPEF | 
460 | 0.032 |  | IP174 (Fc fusion) HGEGTFTSDVSSYLEEEAAKEFIAWLVAGGAAAGGSGSTASSGSGSATGGGGAATHTCPPCPAPEF | 
 | 0.25 |  | IP407 (Fc fusion) YSEGTFTSDYSKLLEEEAIRLFIEWLLAGGGGGGSGGGGSGGGGSGGGGSATHTCPPC | cAMP EC50 [3]: > 163 nM; cAMP EC50 [4]: 2.3 nM
 | 0.082 |  | IP420 (Fc fusion) YSEGTFTSDYSKLLEEEATRLFIEWLLAGGGGGGSGGGGSGGGGSGGGGSATHTCPPC | cAMP EC50 [3]: 21 nM; cAMP EC50 [4]: 2.6 nM
 |  | 0.064 | IP193 (Fc fusion) HGEGTFTSDVSSYLEGQAAKEFIAWLVKGAAAGGSGSTASSGSGSATGGGGCPPCPAPEF | cAMP EC50, Batch 1 [3]: 780 nM; cAMP EC50, Batch 1 [1]: 450 nM
0.18 | 0.78 |  | IP197 (Fc fusion) YSEGTFTSDVSSYMERQAIDEFIAWLLAGAAAGGSGSTASSGSGSATGGGGAATHTCPPCPAPEF | 
17 | 1.6 |  | IP208 (Fc fusion) YSEGTFTSDVSSYLEGQAAKEFIAWLLAGAAAGGSGSTASSGSGSATGGGGAATHTCPPCPAPEF | 
1.2 | 0.23 |  | IP173 (Fc fusion) YSEGTFTSDVSSYLEEQAAKEFIAWLLAGAAAGGSGSTASSGSGSATGGGGAATHTCPPCPAPEF | 
 | 0.069 |  | IP199 (Fc fusion) HGEGTFTSDVSSYLEGQAAKEFIAWLLAGAAAGGSGSTASSGSGSATGGGGAATHTCPPCPAPEF | 
 |  | 0.036 | IP233 (Fc fusion) HGEGTFTSDVSSYLEEQAAKEFIAWLVKGAAAGGSGSTASSGSGSATGGGGAATHTCPPCPAPEF | 
0.39 | 0.53 |  | IP171 (Fc fusion) YSEGTFTSDVSSYMERQAISEFIAWLLAGAAAGGSGSTASSGSGSATGGGGAATHTCPPCPAPEF | 
 |  | 0.037 | IP187 (Fc fusion) HGEGTFTSDVSSYLEGQAAKEFIAWLVKGAPPGGGGGSGGGGSGGGGSGGGGSATHTCPPCPAPEF | cAMP EC50, Batch 1 [1]: 540 nM
0.12 | 850 |  | IP204 (Fc fusion) HGEGTFISDYSIAMDKIHQQDFVNWLLAQKAAAGGSGSTASSGSGSATGGGGAATHTCPPCPAPEF | 
